From US20040014209A1, “Compositions and methods for modulating cell differentiation” (priority 2002, published 2004)

Legend:
DMZ explants = assay: Wnt cDNA overexpression in DMZ explants, Nkx2.5 and TnIc by in situ hybridization; type: cell-based, Xenopus; details: plasmid cDNA injection into dorsal blastomeres; for Incidence of explants expressing Nkx2.5: stage 23; for Incidence of explants expressing TnIc: stage 30
Source text: If the normal function of Wnt antagonism in vivo is to induce cardiogenic mesoderm, then overexpression of Wnt proteins should block cardiogenesis in dorsal mesoderm. Four Wnt genes are known to be expressed during gastrulation: Wnt3A, Wnt5A, Wnt8, and Wnt11. Expression of Wnt8 is normally excluded from the organizer region, whereas Wnt 3A and Wnt11 are expressed dorsally and Wnt5A is found diffusely throughout the ectoderm (Christian and Moon 1993; Ku and Melton 1993; Moon et al. 1993; Du et al. 1995; McGrew et al. 1997). We injected Wnt cDNAs into the two dorsal blastomeres of a four-cell embryo and dissected DMZ explants encompassing the organizer and heart primordia at stage 10 (FIG. 10A). Plasmid injections were performed to avoid perturbation of Nieuwkoop center activity that can occur on expression of certain Wnts before the midblastula transition (Smith and Harland 1991; Sokol et al. 1991). Explants were cultured to either stage 23 or stage 30, at which time they were examined for the expression of Nkx2.5 or TnIc.
(§1) Marginal zone explants were dissected at stage 10. Those explants to be examined by RT-PCR for expression of heart field marker- and heart muscle-specific genes were cultured until sibling embryos were stage 30. In situ hybridization was performed on explants cultured to the equivalent of stage 23 or stage 30. Explants to be scored for formation of beating hearts were maintained until the equivalent of stage 41.
(§2) mRNA was transcribed from pSP35-chd, pSP64-ngn, pCS2-DKK1, pCS2-Crescent, pCS2-GSK3, pCS2-WIF, pCS2-dnXwnt8, pCS2-szl, and pXT7-FrzA using the SP6 and T7 mMessage mMachine kits (Ambion). All cDNAs used encode Xenopus proteins except those for Wnt1 and crescent, which encode chick isoforms. The Xenopus form of crescent was identified while this manuscript was in preparation (Pfeffer et al. 1997; Pera and De Robertis 2000; Shibata et al. 2000) and functions identically to the chick isoform in our assays. Xenopus and chick Crescent share 88% amino acid positional identity within the cysteine-rich domain. Injections were performed in 3% Ficoll in 1×MMR. Embryos were injected equatorially into the two ventral or two dorsal blastomeres at the four-cell stage to target expression to the ventral or dorsal marginal zone. The amount of mRNA injected is given in the text. For plasmid cDNA injections, 75 pg of pCS2-Xwnt3A, pCS2-Xwnt5A, and pCSKA-Xwnt8 and 100 pg of pCS2-cWnt11 supercoiled plasmid constructs were injected.
In situ hybridization was performed according to the protocol of Harland (1991). Digoxygenin-labeled probes were transcribed from the following linearized plasmids: pGEM-XNkx2.5 (XbaI, T7 polymerase) and pBS-TnIc (NotI, T7).

mWnt-3a = mWnt-3a (UniProt P27467); assay: cell-based or functional assay
[1] = test system: murine embryonic stem (ES) cells; assay: Cardiac differentiation of ES cells; type: cell-based
Protocol: Full length human Dkk1 (SEQ ID NO: 2) was expressed in host cells and incubated with murine embryonic stem (ES) cells. ES cells were lightly trypsinized, re-plated on petri plastic and cultured for 4 days. During this time, the cells cluster and the mesodermal marker brachyury becomes expressed. Cells were then trypsinized lightly and transferred to gelatin-coated plates with or without recombinant Dkk1 and cultured at 37° C. Cardiomyocyte differentiation of ES cells in the absence of Dkk1 occurs at 13-14 days. ES cells incubated with Dkk1 differentiated into cardiomyocytes at 8-9 days (see FIG. 21).
Cells were grown on gelatin-coated plates without LIF for 2d, then allowed to aggregate on petri dish plastic for 2d, aggregates were then dispersed by mild trypsinization and plated onto gelatin-coated plates with rDkk1- or rC1-conditioned medium or control conditioned medium lacking rDkk for duration of experiment. Presence of beating foci was scored on days 8-14. Instances of beating foci presented as “beating”. Precocious beating sometimes occurred at day 8.

APMEE explants = assay: APMEE explant culture, cardiac gene expression by RT-PCR; type: cell-based, chick; details: noggin administration to APMEE explants
[2] = test system: ventral marginal zone (VMZ) explants; assay: VMZ explant assay: mRNA injection, cardiac-specific gene expression and beating; type: cell-based, Xenopus laevis
Protocol: In a modification of this assay (FIG. 6A), we targeted mRNAs encoding Wnt and BMP antagonists to VMZ tissue by microinjection into the equatorial region of both ventral blastomeres of four-cell stage embryos. VMZ explants were isolated at stage 10, cultured, and assayed at stage 30 by RT-PCR for cardiac-specific gene expression.
Embryos were fertilized in vitro, dejellied in 2% cysteine-HCl (pH 7.8), and maintained in 0.1×MMR. Explant dissections were performed in 0.75×MMR using an eyelash knife. Embryos were staged according to Nieuwkoop and Faber (1994).
as §1, §2
RT-PCR was performed as described in Schneider and Mercola (1999). Twenty-five cycles were performed at an annealing temperature of 55° C., unless otherwise noted. Expression of EF1α was used as a positive control for the reverse transcriptase reaction. The following additional primers were used: XNkx2.5+, […] (SEQ ID NO: 7); XNkx2.5−, […] (SEQ ID NO: 8); M. actin+, […] (SEQ ID NO: 9); M. actin−, […] (SEQ ID NO: 10) (22 cycles); TnIc+, […] (SEQ ID NO: 11); TnIc−, […] (SEQ ID NO: 12); MHCα+, […] GTTCCG (SEQ ID NO: 13); MHCα−, […] (SEQ ID NO: 14); Tbx5+, […] (SEQ ID NO: 15); Tbx5−, […] (SEQ ID NO: 16) (27 cycles); XNkx2.10+, […] (SEQ ID NO: 17); and XNkx2.10−, […] (SEQ ID NO: 18) (59° C., 28 cycles).
A secreted version of the C-terminal fragment was made by fusing the secretory region of human Dkk1 to the C-terminal region cysteine rich region, as described above. This protein is referred to as “C1.” Briefly, the HindIII-Asp718 C-terminal fragment of human Dkk1 (SEQ ID NO: 1) was ligated to the sequence encoding the secretory signal of Dkk1 and cloned into a vector permitting in vitro transcription. As a control, full length Dkk1 was used. RNA was prepared in vitro from the vector as described above. The RNA encoded a polypeptide comprising amino acids 158-266 of SEQ ID NO: 2. The RNA was then injected into noncardiogenic frog embryonic mesoderm, as described above and in Schneider and Mercola (2001) Genes & Dev. 15:304.

stage 7 chick embryos = assay: Cell pellet implantation into stage 7 chick embryos in New culture (heart looping, DiI tracing, in situ hybridization); type: in vivo

Sequence of mWnt-3a (P27467 19-352 limits assumed): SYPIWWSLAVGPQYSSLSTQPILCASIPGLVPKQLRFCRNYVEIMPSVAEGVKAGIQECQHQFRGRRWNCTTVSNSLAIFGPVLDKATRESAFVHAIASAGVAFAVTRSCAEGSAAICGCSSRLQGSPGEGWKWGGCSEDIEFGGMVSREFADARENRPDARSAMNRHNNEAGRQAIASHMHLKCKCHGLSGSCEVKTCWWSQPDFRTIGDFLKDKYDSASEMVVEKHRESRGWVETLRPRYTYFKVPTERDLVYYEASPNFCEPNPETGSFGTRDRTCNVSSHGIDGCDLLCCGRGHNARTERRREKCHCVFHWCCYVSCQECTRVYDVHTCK

Molecule: Wnt3A
- Incidence of explants expressing Nkx2.5 (DMZ explants): 45.6%
- Incidence of explants expressing TnIc (DMZ explants): 24.2%

Molecule: chick Crescent
- Wnt-induced expression of siamois in Xenopus animal caps (RT-PCR) (mWnt-3a): 3 fold

B1: Dkk1: Full length human Dkk1 (SEQ ID NO: 2), recombinant, expressed in host cells (protein, UniProt O94907 1-266, looked up)
chain: MMALGAAGATRVFVAMVAAALGGHPLLGVSATLNSVLNSNAIKNLPPPLGGAAGHPGSAVSAAPGILYPGGNKYQTIDNYQPYPCAEDEECGTDEYCASPTRGGDAGVQICLACRKRRKRCMRHAMCCPGNYCKNGICVSSDQNHFRGEIEETITESFGNDHSTLDGYSRRTTLSSKMYHTKGQEGSVCLRSSDCASGLCCARHFWSKICKPVLKEGQVCTKHRRKGSHGLEIFQRCYCGEGLSCRIQKDHHQASNSSRLHTCQRH
modifications: full-length
- myosin light chain (MLC2a) mRNA ([1]; PCR, relative to ES cells not incubated with Dkk1): elevated myosin light chain (MLC2a) mRNA
- Beating, Nkx2.5 and contractile protein expression ([1]; by comparison with ES cells not incubated with Dkk1): early beating, an increased number of beating foci, an increased Nkx2.5 expression and increased contractile protein expression
- Time to cardiomyocyte differentiation of ES cells ([1]; recombinant Dkk1, 13-14 days in the absence of Dkk1): 8 to 9 days

B2: Noggin: BMP antagonist; noggin-conditioned medium from CHO cells or injected noggin mRNA (protein, UniProt P49011 20-222, looked up)
Noggin: RIDQGGCQHYLHIRPAPSENLPLVDLIEHPDPIYDPKEKDLNETLLRTLMVGHFDPNFMATILPEERLGVEDLGELDLLLRQKPSGAMPAEIKGLEFYEGLQSKKHRLSKKLRRKLQMWLWSQTFCPVLYTWNDLGTRFWPRYVKVGSCYSKRSCSVPEGMVCKAAKSMHLTILRWRCQRRVQQKCAWITIQYPVISECKCSC
- APMEE explants in which cardiogenesis was blocked (number of explants) (APMEE explants): 10 out of 14
- mRNA dose inducing muscle actin ([2]; VMZ explants): ≥ 5 pg
- mRNA dose at which explants were unable to survive ([2]; extreme morphogenetic movements of VMZ explants): > 50 pg
- Heart-specific gene expression (TnIc, MHCα) ([2]; mRNA injected ventrally at four-cell stage, VMZ explants, RT-PCR stage 30): did not induce specific markers of cardiogenesis

B3: Wnt5A: expressed from injected pCS2-Xwnt5A plasmid (protein, UniProt P31286 41-380, looked up)
Protein Wnt-5a: VVESSSWWSLGMNPVQMPEVYIIGAQPLCSQLSGLSQGQKKLCQLYQDHMQFIGDGAKTGIKECQYQFRHRRWNCSTVDNTSVFGRVMQIGSRETAFTYAISAAGVVNAVSRACREGELSTCGCSRAARPKDLPRDWLWGGCGDNLDYGYRFAKEFVDAREREKIHQKGSYESSRIMMNLHNNEAGRRAVSTLADVACKCHGVSGSCSLKTCWLQLADFRKVGDHLKEKYDSAGAMKLNTRGKLVQVNNKFNSPTMNDLVYIDPSPDYCVHNESTGSLGTQGRLCNKTSEGMDGCELMCCGRGYDQFKTVQTERCHCKFHWCCYVKCKKCTEVVDQFACK
- Incidence of explants expressing Nkx2.5 (DMZ explants): 97.5%
- Incidence of explants expressing TnIc (DMZ explants): 85.9%

B4: Wnt11: expressed from injected pCS2-cWnt11 plasmid (protein, UniProt P49339 25-354, looked up)
Protein Wnt-11: IKWIALSKTPSSLALNQTQHCKQLEGLVVSQVQLCRSNLELMQTIIQAAREVIKTCRKTFSDMRWNCSSIELAPNYLLDLERGTRESAFVYALSAAAISHTIARACTTGDLPGCSCGPIPGETPGPGYRWGGCADNLNYGLIMGSKFSDAPMKMKKSGSQANKLMHLHNSEVGRQVLKASLEMKCKCHGVSGSCSIKTCWKGLQELRDIALDLKNKYLSATKVVHRPMGTRKYLVPKDIDIRPVKETELIYLQSSPDFCMKNEKVGSHGTQDRQCNKTSNGSDSCDLMCCGRGYNPYMDKVVERCHCKYHWCCYVTCKKCERTVERYVCK
- Incidence of explants expressing Nkx2.5 (DMZ explants): 94.1%
- Incidence of explants expressing TnIc (DMZ explants): 83.1%

B5: Wnt8: expressed from injected pCSKA-Xwnt8 plasmid (protein)
chain: AWSVNNFLMTGPKAYLTYSASVAVGAQNGIEECKYQFAWERWNCPESTLQLATHNGLRSATRETSFVHAISSAGVMYTLTRNCSMGDFDNCGCDDSRNGRIGGRGWVWGGCSDNAEFGERISKLFVDGLETGQDARALMNLHNNEAGRLAVKETMKRTCKCHGISGSCSIQTCWLQLAEFRDIGNHLKIKHDQALKLEMDKRKMRSGNSADNRGAIADAFSSVAGSELIFLEDSPDYCLKNISLGLQGTEGRECLQSGKNLSQWERRSCKRLCTDCGLRVEEKKTEIISSCNCKFHWCCTVKCEQCKQVVIKHFCARRERDSNMLNTKRKNRGHRR
- Incidence of explants expressing Nkx2.5 (DMZ explants): 19.9%
- Incidence of explants expressing TnIc (DMZ explants): 41.1%

B6: BMP-4: BMP-4 expressed by implanted 293 cell pellets (protein, UniProt P12644 293-408, looked up)
Bone morphogenetic protein 4: SPKHHSQRARKKNKNCRRHSLYVDFSDVGWNDWIVAPPGYQAFYCHGDCPFPLADHLNSTNHAIVQTLVNSVNSSIPKACCVPTELSAISMLYLDEYDKVVLKNYQEMVVEGCGCR
- Embryos with reversed heart looping (stage 7 chick embryos; 293 cell pellets in left anterior paraxial mesoderm, stage 7, n=25): 20%
- vMHC expression (stage 7 chick embryos; cell pellets in presumptive anterior paraxial mesoderm, in situ hybridization): failed to affect subsequent vMHC expression
